According to US20180155413A1 (AstraZeneca / MedImmune, published 2018):

What was measured:
Experiment in all cases: cell-based or functional assay
[1] = molecular target: HA of B/Hong Kong/330/2001 (victoria) (influenza B virus)
[2] = molecular target: HA of B/Malaysia/2506/2004 (victoria) (influenza B virus)
[3] = molecular target: HA of A/Victoria/3/75 (H3N2) (influenza A virus)
[4] = molecular target: HA of A/California/07/2009 (H1N1) (influenza A virus)
[5] = molecular target: HA of A/Shan dong/9/93 (H3N2) (influenza A virus)
[6] = molecular target: HA of B/Sichuan/379/99 (yamagata) (influenza B virus)
[7] = molecular target: HA of A/Hong Kong/8/68 (H3N2) (influenza A virus)
[8] = molecular target: HA of A/Solomon Island/3/2006 (H1N1) (influenza A virus)
[9] = molecular target: HA of B/Ohio/1/2005 (victoria) (influenza B virus)
[10] = molecular target: HA of ca B/Beijing/243/97 (victoria) (influenza B virus)
[11] = molecular target: HA of B/Florida/4/2006 (yamagata) (influenza B virus)
[12] = molecular target: HA of ca A/Panama/2007/99 (H3N2) (influenza A virus)
[13] = molecular target: HA of A/Wilson Smith N/33 (H1N1) (influenza A virus, UniProt P03454 18-565)
[14] = molecular target: HA of B/Yamanashi/166/98 (yamagata) (influenza B virus)
[15] = molecular target: HA of A/Beijing/262/95 (H1N1) (influenza A virus)

HA of A/Wilson Smith N/33 (H1N1), sequence (P03454 18-565 limits assumed): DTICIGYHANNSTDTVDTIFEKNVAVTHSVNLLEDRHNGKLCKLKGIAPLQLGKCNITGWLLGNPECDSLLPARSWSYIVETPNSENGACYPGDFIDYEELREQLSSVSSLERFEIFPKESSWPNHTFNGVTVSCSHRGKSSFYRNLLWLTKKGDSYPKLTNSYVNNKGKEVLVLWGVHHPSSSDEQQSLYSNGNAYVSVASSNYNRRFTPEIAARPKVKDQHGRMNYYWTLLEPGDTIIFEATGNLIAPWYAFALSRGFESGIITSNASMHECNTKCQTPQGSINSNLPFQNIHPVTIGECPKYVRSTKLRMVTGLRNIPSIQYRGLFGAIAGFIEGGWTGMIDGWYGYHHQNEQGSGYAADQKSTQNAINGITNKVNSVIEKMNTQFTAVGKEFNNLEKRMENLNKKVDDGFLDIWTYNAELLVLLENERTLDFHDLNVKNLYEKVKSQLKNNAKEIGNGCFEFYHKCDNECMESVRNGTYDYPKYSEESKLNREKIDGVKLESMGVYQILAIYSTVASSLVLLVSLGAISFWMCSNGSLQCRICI

B1: FY1/39 BiS4 100/44 (bispecific antibody)
light: DIQMTQSPSSLSASVGDRVTITCRTSQSLSSYLHWYQQKPGKAPKLLIYAASSLQSGVPSRFSGSGSGTDFTLTISSLQPEDFATYYCQQSRTFGQGTKVEIKRTVAAPSVFIFPPSDEQLKSGTASVVCLLNNFYPREAKVQWKVDNALQSGNSQESVTEQDSKDSTYSLSSTLTLSKADYEKHKVYACEVTHQGLSSPVTKSFNRGEC
heavy: not shown
Neutralization (IC50) [1]: 69.3 nM
Neutralization (IC50) [2]: 27.6 nM
Neutralization (IC50) [3]: 26.4 nM
Neutralization (IC50) [4]: 8.2 nM
Neutralization (IC50) [5]: 12.8 nM
Neutralization (IC50) [6]: 8.2 nM
Neutralization (IC50) [7]: 10.6 nM
Neutralization (IC50) [8]: 3.9 nM
Neutralization (IC50) [9]: 5.6 nM
Neutralization (IC50) [10]: 5.8 nM
Neutralization (IC50) [11]: 3.6 nM
Neutralization (IC50) [12]: 152 nM
Neutralization (IC50) [13]: 10.6 nM
Neutralization (IC50) [14]: 0.9 nM
Neutralization (IC50) [15]: 20.2 nM

B2: FY1/94 BiS4 100/44 (bispecific antibody)
light: DIQMTQSPSSLSASVGDRVTITCRTSQSLSSYLHWYQQKPGKAPKLLIYAASSLQSGVPSRFSGSGSGTDFTLTISSLQPEDFATYYCQQSRTFGQGTKVEIKRTVAAPSVFIFPPSDEQLKSGTASVVCLLNNFYPREAKVQWKVDNALQSGNSQESVTEQDSKDSTYSLSSTLTLSKADYEKHKVYACEVTHQGLSSPVTKSFNRGEC
heavy: not shown
Neutralization (IC50) [1]: 4 nM
Neutralization (IC50) [2]: 1.8 nM
Neutralization (IC50) [3]: 7.2 nM
Neutralization (IC50) [4]: 6.2 nM
Neutralization (IC50) [5]: 37.9 nM
Neutralization (IC50) [6]: 5.2 nM
Neutralization (IC50) [7]: 9.1 nM
Neutralization (IC50) [8]: 2.5 nM
Neutralization (IC50) [9]: 3 nM
Neutralization (IC50) [10]: 1.8 nM
Neutralization (IC50) [11]: 1.8 nM
Neutralization (IC50) [12]: 38.2 nM
Neutralization (IC50) [13]: 7.3 nM
Neutralization (IC50) [14]: 2.3 nM
Neutralization (IC50) [15]: 13.1 nM

B3: FY1/94 BiS2 100/44 (bispecific antibody)
light: DIQMTQSPSSLSASVGDRVTITCRTSQSLSSYLHWYQQKPGKAPKLLIYAASSLQSGVPSRFSGSGSGTDFTLTISSLQPEDFATYYCQQSRTFGQGTKVEIKRTVAAPSVFIFPPSDEQLKSGTASVVCLLNNFYPREAKVQWKVDNALQSGNSQESVTEQDSKDSTYSLSSTLTLSKADYEKHKVYACEVTHQGLSSPVTKSFNRGEC
heavy: not shown
Neutralization (IC50) [1]: 2.1 nM
Neutralization (IC50) [2]: 0.8 nM
Neutralization (IC50) [3]: 15.8 nM
Neutralization (IC50) [4]: 23.1 nM
Neutralization (IC50) [5]: 208 nM
Neutralization (IC50) [6]: 1.7 nM
Neutralization (IC50) [7]: 17.2 nM
Neutralization (IC50) [8]: 4.1 nM
Neutralization (IC50) [9]: 1.3 nM
Neutralization (IC50) [10]: 1.1 nM
Neutralization (IC50) [11]: 0.6 nM
Neutralization (IC50) [12]: 484 nM
Neutralization (IC50) [13]: 19.9 nM
Neutralization (IC50) [14]: 0.5 nM
Neutralization (IC50) [15]: 42 nM

B4: GL20/39FTL BiS4 43/105 (bispecific antibody)
light: DIQMTQSPSSLSASVGDRVTITCRTSQSLSSYTHWYQQKPGKAPKLLIYAASSRGSGVPSRFSGSGSGTDFTLTISSLQPEDFATYYCQQSRTFGQGTKVEIKRTVAAPSVFIFPPSDEQLKSGTASVVCLLNNFYPREAKVQWKVDNALQSGNSQESVTEQDSKDSTYSLSSTLTLSKADYEKHKVYACEVTHQGLSSPVTKSFNRGEC
heavy: not shown
Neutralization (IC50) [1]: 164 nM
Neutralization (IC50) [2]: 16.2 nM
Neutralization (IC50) [3]: 14.9 nM
Neutralization (IC50) [4]: 20.8 nM
Neutralization (IC50) [5]: 22.2 nM
Neutralization (IC50) [6]: 8.7 nM
Neutralization (IC50) [7]: 6.3 nM
Neutralization (IC50) [8]: 3.8 nM
Neutralization (IC50) [9]: 17.5 nM
Neutralization (IC50) [10]: 23.5 nM
Neutralization (IC50) [11]: 4.2 nM
Neutralization (IC50) [12]: 35.5 nM
Neutralization (IC50) [13]: 9.6 nM
Neutralization (IC50) [14]: 1.1 nM
Neutralization (IC50) [15]: 11.8 nM

B5: FY1/39 BiS4 43/105 (bispecific antibody)
light: DIQMTQSPSSLSASVGDRVTITCRTSQSLSSYLHWYQQKPGKAPKLLIYAASSLQSGVPSRFSGSGSGTDFTLTISSLQPEDFATYYCQQSRTFGQGTKVEIKRTVAAPSVFIFPPSDEQLKSGTASVVCLLNNFYPREAKVQWKVDNALQSGNSQESVTEQDSKDSTYSLSSTLTLSKADYEKHKVYACEVTHQGLSSPVTKSFNRGEC
heavy: not shown
Neutralization (IC50) [1]: 19.1 nM
Neutralization (IC50) [2]: 12.6 nM
Neutralization (IC50) [3]: 6.5 nM
Neutralization (IC50) [4]: 7.1 nM
Neutralization (IC50) [5]: 20.4 nM
Neutralization (IC50) [6]: 3.5 nM
Neutralization (IC50) [7]: 4 nM
Neutralization (IC50) [8]: 2.6 nM
Neutralization (IC50) [9]: 5.4 nM
Neutralization (IC50) [10]: 2.6 nM
Neutralization (IC50) [11]: 1.6 nM
Neutralization (IC50) [12]: 52.7 nM
Neutralization (IC50) [13]: 4.3 nM
Neutralization (IC50) [14]: 0.6 nM
Neutralization (IC50) [15]: 10.9 nM

B6: FBD94 IgG (antibody, V domains shown)
VH: EVQLVESGGGLVQPGRSLRLSCAVSGFIFEDYAINWVRQAPGKGLEWVSIISWDSGRIGYADSVRGRFTISRDNAKNSSFLQMNSLRPEDTAVYYCVKDMLAYYYDGSGIRYNLYGMDVWGQGTTVTVSS
VL: EIVLTQSPATLSLSPGERATLSCRASRSITTFLAWYQQKPGQAPRLLIYDASNRATGVPARFSGSGSGTDFTLTINSLEPDDFAIYYCQQRDHWPPIFGQGTRLEIK
Neutralization (IC50) [1]: 0.1 nM
Neutralization (IC50) [2]: 0.1 nM
Neutralization (IC50) [3]: > 1000 nM
Neutralization (IC50) [4]: > 1000 nM
Neutralization (IC50) [5]: > 1000 nM
Neutralization (IC50) [6]: 0.2 nM
Neutralization (IC50) [7]: > 1000 nM
Neutralization (IC50) [8]: > 1000 nM
Neutralization (IC50) [10]: 0.1 nM
Neutralization (IC50) [11]: 0.1 nM
Neutralization (IC50) [12]: > 1000 nM
Neutralization (IC50) [13]: > 1000 nM
Neutralization (IC50) [14]: 0.1 nM
Neutralization (IC50) [15]: > 1000 nM

B7: GL20/39FTL BiS4 100/44 (bispecific antibody)
light: DIQMTQSPSSLSASVGDRVTITCRTSQSLSSYTHWYQQKPGKAPKLLIYAASSRGSGVPSRFSGSGSGTDFTLTISSLQPEDFATYYCQQSRTFGQGTKVEIK
heavy (part 1 of 2): QVQLQQSGPGLVKPSQTLSLTCAISGDSVSSYNAVWNWIRQSPSRGLEWLGRTYYRSGWYNDYAESVKSRITINPDTSKNQFSLQLNSVTPEDTAVYYCARSGHITVFGVNVDAFDMWGQGTMVTVSS
heavy (part 2 of 2): DIQMTQSPSSVSASVGDRVTITCRASQDISTWLAWYQQKPGKAPKLLIYAASSLQSGVPSRFSGSGSGTDFTLTISSLQPEDFATYYCQQANSFPPTFGCGTKLEIKGGGGSGGGGSGGGGSGGGGSEVQLVESGGGLVKPGGSLRLSCAASGFTFLNAWMSWVRQAPGKCLEWVGRIKSNTDGGTTDYAAPVKGRFTISRDDSKNTLYLQMSSLKTEDTAVYYCTTDGPYSDDFRSGYAARYRYFGMDVWGQGTTVTVSS
Neutralization (IC50) [1]: 106 nM
Neutralization (IC50) [2]: 42.8 nM
Neutralization (IC50) [3]: 13.3 nM
Neutralization (IC50) [4]: 25.4 nM
Neutralization (IC50) [5]: 21.9 nM
Neutralization (IC50) [6]: 9.8 nM
Neutralization (IC50) [7]: 10.8 nM
Neutralization (IC50) [8]: 4.4 nM
Neutralization (IC50) [9]: 20.9 nM
Neutralization (IC50) [10]: 96.2 nM
Neutralization (IC50) [11]: 7.3 nM
Neutralization (IC50) [12]: 34.1 nM
Neutralization (IC50) [13]: 13.7 nM
Neutralization (IC50) [14]: 1.4 nM
Neutralization (IC50) [15]: 16.4 nM

B8: FY1 IgG (antibody, V domains shown)
VH: QVQLQESGPGLVKPSQTLSLTCAISGDSVSSNNAVWNWIRQSPSRGLEWLGRTYYRSKWYNDYAESVKSRITVNPDTSKNQFSLHLKSVTPEDTAVFYCVRSGHITVFGVNVDAFDMWGQGTMVTVSS
VL: DIQMTQSPSSLSASVGDRVTITCRTSQSLSSYLHWYQQKPGKAPKLLIYAASSLQSGVPSRFSGSGSGTDFTLTISSLQPEDFATYYCQQSRTFGQGTKVEIK
Neutralization (IC50) [1]: > 1000 nM
Neutralization (IC50) [2]: > 1000 nM
Neutralization (IC50) [3]: 12 nM
Neutralization (IC50) [4]: 10.4 nM
Neutralization (IC50) [5]: 34.6 nM
Neutralization (IC50) [6]: > 1000 nM
Neutralization (IC50) [7]: 10.6 nM
Neutralization (IC50) [8]: 3.1 nM
Neutralization (IC50) [9]: > 1000 nM
Neutralization (IC50) [10]: > 1000 nM
Neutralization (IC50) [11]: > 1000 nM
Neutralization (IC50) [12]: 104 nM
Neutralization (IC50) [13]: 8.8 nM
Neutralization (IC50) [14]: > 1000 nM
Neutralization (IC50) [15]: 21 nM

B9: FY1/39 BiS1 100/44 (bispecific antibody)
light: DIQMTQSPSSVSASVGDRVTITCRASQDISTWLAWYQQKPGKAPKLLIYAASSLQSGVPSRFSGSGSGTDFTLTISSLQPEDFATYFCQQANSFPPTFGCGTKLEIKGGGGSGGGGSGGGGSGGGGSEVQLVVSGGGLVKPGGSLRLSCAASGLSFLNAWMSWVRQAPGKCLEWVGRIKSNTDGGTTDYAAPVKGRFSISRDDSKNMLFLHMSSLRTEDTAVYYCATDGPYSDDFRSGYAARYRYFGMDVWGQGTTVTVSSGGGGSGGGGSDIQMTQSPSSLSASVGDRVTITCRTSQSLSSYLHWYQQKPGKAPKLLIYAASSLQSGVPSRFSGSGSGTDFTLTISSLQPEDFATYYCQQSRTFGQGTKVEIKRTVAAPSVFIFPPSDEQLKSGTASVVCLLNNFYPREAKVQWKVDNALQSGNSQESVTEQDSKDSTYSLSSTLTLSKADYEKHKVYACEVTHQGLSSPVTKSFNRGEC
heavy: not shown
Neutralization (IC50) [1]: 5.3 nM
Neutralization (IC50) [2]: 4.1 nM
Neutralization (IC50) [3]: 337 nM
Neutralization (IC50) [4]: 32.5 nM
Neutralization (IC50) [5]: > 1000 nM
Neutralization (IC50) [6]: 1.5 nM
Neutralization (IC50) [7]: 31.4 nM
Neutralization (IC50) [8]: 14.7 nM
Neutralization (IC50) [9]: 2.6 nM
Neutralization (IC50) [10]: 3.6 nM
Neutralization (IC50) [11]: 1.1 nM
Neutralization (IC50) [12]: > 1000 nM
Neutralization (IC50) [13]: 28.2 nM
Neutralization (IC50) [14]: 0.1 nM
Neutralization (IC50) [15]: 62.2 nM
